Laboratory results as given in paper PMC7745056.

Target: T1, IiWRKY34 (Isatis indigotica, UniProt A0A6G8R7I5 1-302)
T1 sequence: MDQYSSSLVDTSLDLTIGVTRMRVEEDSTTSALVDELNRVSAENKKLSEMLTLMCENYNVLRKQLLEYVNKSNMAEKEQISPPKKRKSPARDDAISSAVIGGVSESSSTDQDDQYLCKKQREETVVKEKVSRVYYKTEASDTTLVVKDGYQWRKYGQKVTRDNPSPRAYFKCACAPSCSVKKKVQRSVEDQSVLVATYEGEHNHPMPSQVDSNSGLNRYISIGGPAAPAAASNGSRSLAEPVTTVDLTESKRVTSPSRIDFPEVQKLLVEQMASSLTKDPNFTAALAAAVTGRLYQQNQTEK
Test: EMSA

B1: Ii4CL3 promoter mutated W-box probe (Ii4CL3mpF/mpR) (dsDNA)
DNA 1: TCCGATTTTTTTCATAATTAATTTGAAATGTGCGGTTGATTTTTTTCCAA
DNA 2: TTGGAAAAAAATCAACCGCACATTTCAAATTAATTATGAAAAAAATCGGA
B1: no binding.
